# Laboratory results published in article PMC4107924 (IUCrJ, 2014).
# B1: MATα1, catalytic subunit of methionine adenosyltransferase (mat1A gene) (enzyme)
# chain: not shown
# notes: MATα1, catalytic subunit encoded by mat1A, human; construct provided by SGC Oxford; His tag cleaved with TEV protease; also called MAT(α1)4; source: E. coli BL21(DE3), purified (nickel resin, HiTrap Q ion exchange, Superdex 200 gel filtration)
# Target: T1, MATβV1Δ16, MATβV1 lacking the first 16 amino acids (human, UniProt Q9NZL9 17-334)
# T1 construct: MATβV1 (splicing variant 1 of mat2B), human, lacking the first 16 amino acids; Cloned via NcoI and XhoI sites like MATβV1; source: cloned in the HIS-parallel vector
# Experiment: SEC; MATα and MATβ incubated 1 h at 4°C in 50 mM HEPES pH 7.5, 10 mM MgCl2, 50 mM KCl, 300-500 µM NADP; Superdex 200 10/300 in 200 mM NaCl, 25 mM HEPES pH 7.5, 1 mM MgCl2, 5 mM KCl, 1 mM TCEP; also tested for the effect of NADP
# Details: both partners purified
binder,measurement,value
B1,binding result,binds
